What was measured:
olivetolic acid [1] = assay: GPS-APT fusions, OA feed in vivo assay (Example 11); format: cell-based, Yarrowia; conditions: for CBGA / FCBGA: olivetolic acid feed as in Example 8, 48 h quench, strain sCL-SE-0128; for CBGA/FCBG: olivetolic acid feed, 48 h quench, product ratio
Protocol: (§1) As described below, plasmids pCL-SE-0406, pCL-SE-0664, pCL-SE-0663, pCL-SE-0662, pCL-SE-0380 (MPT4), pCL-SE-0337.MPT21, pCL-SE-0337.MPT26, and pCL-SE-0337.MPT31 were transformed into strain sCL-SE-0128. Multiple colonies per transformation were precultured for 48 h in YNB containing glucose (2%), casamino acids (0.5%), and MES (100 mM pH 6.5). Pre-culture was used to inoculate assay medium comprised of YNB containing glucose (2%), casamino acids (0.5%), MES (100 mM pH 6.5), and olivetolic acid (2 mM). Cultures were quenched with equal volume of ethanol after 48 h total growth and assayed for CBGA and FCBGA. Averages and standard deviations were calculated from replicates.
Soluble prenyl transferase APT73.77 was fused with GPS1.1 at the N- or C-terminus with different linkers creating the plasmids shown in Table 14. These fusion proteins were expressed and screened as described in Example 8 (olivetolic acid feed)
(§2) Overnight YPD (10 g/L yeast extract, 20 g/L peptone, 2% dextrose) cultures were inoculated from glycerol stocks of the appropriate strain and grown at 30° C. with 250 rpm shaking. Once cultures had reached an OD600 of 4-6, cultures were centrifuged at 500×g for 5 min, supernatants were discarded, and cell pellets were resuspended in equal volume of water. Resuspended cells were centrifuged at 500×g for 5 min, supernatants were discarded, and cells were resuspended in a volume (75 μL×OD×Vculture) of transformation cocktail (45% PEG-400, 0.1 M LiAc, 0.1 M DTT, and 25 ug/100 μL SS Salmon Sperm DNA). For each transformation, >1 μg of plasmid DNA was added to 55 μL cells/transformation cocktail and vortexed for 2 s. Transformations were incubated at 39° C. for 1 h with 250 rpm shaking. Transformations were resuspended in 750 μL YPD with 1 M sorbitol and recovered at 30° C. overnight with 250 rpm shaking. The next day, transformations were centrifuged at 500×g for 5 min, supernatants were discarded, and cell pellets were resuspended in 750 YPD. Resuspended transformations were plated on YPD with appropriate selection or YNBD (6.71 g/L yeast nitrogen base+nitrogen, 0.5% casamino acids, 2% dextrose) agar plates and grown at 30° C. for 2 days. Individual colonies were patched onto YPD plates with appropriate selection or YNBD plates and grown at 30° C. overnight. Patches were used to inoculate 0.5 mL YPD with appropriate selection or YNBD precultures in 96 w blocks and grown at 30° C. for 24-48 h with 1000 rpm shaking. For assays, 0.5 mL YPD with appropriate selection or YNBD cultures containing substrate were inoculated with 2 μL from precultures and grown at 30° C. for 2-4 days with 1000 rpm shaking with 2% glucose added every 24 h. Assay cultures were quenched by addition of 0.5 mL ethanol with 0.2% formic acid and 0.5 mg/mL pentyl-benzoic acid. Precipitates were pelleted by centrifuging at 4600×g for 10 min and then 200 μL was transferred to fresh plates, sealed, and analyzed via HPLC.
(§3) All samples were quenched with equal volume of EtOH containing 0.2 mg/mL internal standard (3,5-Diisopropyl-2-hydroxybenzoic acid CAS #2215-21-6) centrifuged, and clarified solutions were analyzed by HPLC-MS
(§4) • Column: 2.1×50 mm COSMOCORE PBr (Nacalai USA, Inc.) • Mobile Phase: A; 0.1% formic acid in water, B; 0.1% formic acid in acetonitrile • Flow: 0.45 mL/min • Temp: % 50 Celsius • Gradient: 20%B at 0 min, 70%B at 2.3 min, 89% B at 4.2 min, 20% B at 4.3 min, 20%B at 6 min

olivetolic acid [2] = assay: MPT fusions with GPS1.1 vs unfused MPTs, OA feed (Example 8, Table 9); format: cell-based, Yarrowia; conditions: 2 mM olivetolic acid, 48 h quench; for CBGA / FCBGA: 2% glucose, strain sCL-SE-0128; for CBGA/FCBGA: product ratio
Protocol: as §1, §2, §3, §4

Row | Molecule | CBGA (olivetolic acid [1]) [µM] | FCBGA (olivetolic acid [1]) [µM] | CBGA/FCBG (olivetolic acid [1]) | CBGA (olivetolic acid [2]) [µM] | FCBGA (olivetolic acid [2]) [µM] | CBGA/FCBGA (olivetolic acid [2])
1 | GPS1.1-F18-APT73.77: fusion protein, SEQ ID NO: 65 (protein, GPS1.1-F18-APT73.77, geranyl diphosphate synthase, mutant soluble aromatic prenyltransferase fusion protein) MSKAKFESVFPRISEELVQLLRDEGLPQDAVQWFSDSLQYNCVGGKLNRGLSVVDTYQLLTGKKELDDEEYYRLALLGWLIELLQAFWLVSDDIMDESKTRRGQPCWYLKPKVGMIAIWDAFMLESGIYILLKKHFRQEKYYIDLVELFHDISFKTELGQLVDLLTAPEDEVDLNRFSLDKHSFIVRYKTAYYSFYLPVVLAMYVAGITNPKDLQQAMDVLIPLGEYFQVQDDYLDNFGDPEFIGKIGTDIQDNKCSWLVNKALQKATPEQRQILEDNYGVKDKSKELVIKKLYDDMKIEQDYLDYEEEVVGDIKKKIEQVDESRGFKKEVLNAFLAKIYKRQKGGGGSLEDPAVWEAGKVVAKGVGTADITATTSNGLIASSEEADNAATSMDEVYAAVEQTSRLLDVPCSPDRFEPVWKAFGDQLPDSHLVFSMAAGEAHRGELDFDFSLRPEGADPYTTALEHGFIEPTDHPVGSVLAEVGKRFAIASYGVEYGVVGGFKKSYAFFPLDDFPPLAQFAEVPSVPPCLAGHVETLTRLGFDDKVSIIGVNYRKNTLNVYLAASAVDTGDKLALLRAFGYPEPDARVRQFIERSFRLYPTFNWDSSAAERICFAVHTQQPGELPAPHDEPTEAFARQVPHVYEGGREFVSGVALAPSGASYYKLAALYQKARRCLD | 468 ± 24 | 121 ± 2 | 3.9 | – | – | –
2 | GPS1.1-F11-MPT31: fusion protein, SEQ ID NO: 27 (protein, GPS1.1-F11-MPT31, geranyl diphosphate synthase, recombinant membrane-bound prenyltransferase fusion protein) MSKAKFESVFPRISEELVQLLRDEGLPQDAVQWFSDSLQYNCVGGKLNRGLSVVDTYQLLTGKKELDDEEYYRLALLGWLIELLQAFWLVSDDIMDESKTRRGQPCWYLKPKVGMIAIWDAFMLESGIYILLKKHFRQEKYYIDLVELFHDISFKTELGQLVDLLTAPEDEVDLNRFSLDKHSFIVRYKTAYYSFYLPVVLAMYVAGITNPKDLQQAMDVLIPLGEYFQVQDDYLDNFGDPEFIGKIGTDIQDNKCSWLVNKALQKATPEQRQILEDNYGVKDKSKELVIKKLYDDMKIEQDYLDYEEEVVGDIKKKIEQVDESRGFKKEVLNAFLAKIYKRQKGGAEAAAKEAAAKAGGSGGGSGGGGSGGSGGGGSGGGGSMSDNSIATKILNFGHACWKLQRPYVVKGMISIACGLFGRELLHNTNLISWGLMWKAFFALVPILSFNFFAAIMNQIYDLHIDRINKPDLPLASGEISVNTAWIMSIIVALTGLIVTIKLKSAPLFVFIYIFGIFAGFAYSVPPIRWKQNPSTNFLITISSHVGLAFTSYYASRAALGLPFELRPSFTFLLAFMTVMGMTIAFAKDISDIEGDAKYGVSTVATKLGARNMTFVVSGVLLLNYLVSISIGIIWPQVFKSNIMILSHAILAFWLILQTRDFALTNYDPEAGRRFFEFIWLLYYAEYLVYVFI | – | – | – | 53 ± 4 | 5 ± 0 | 10.8
3 | GPS1.1-F11-MPT26: fusion protein, SEQ ID NO: 26 (protein, GPS1.1-F11-MPT26, geranyl diphosphate synthase, recombinant membrane-bound prenyltransferase fusion protein) MSKAKFESVFPRISEELVQLLRDEGLPQDAVQWFSDSLQYNCVGGKLNRGLSVVDTYQLLTGKKELDDEEYYRLALLGWLIELLQAFWLVSDDIMDESKTRRGQPCWYLKPKVGMIAIWDAFMLESGIYILLKKHFRQEKYYIDLVELFHDISFKTELGQLVDLLTAPEDEVDLNRFSLDKHSFIVRYKTAYYSFYLPVVLAMYVAGITNPKDLQQAMDVLIPLGEYFQVQDDYLDNFGDPEFIGKIGTDIQDNKCSWLVNKALQKATPEQRQILEDNYGVKDKSKELVIKKLYDDMKIEQDYLDYEEEVVGDIKKKIEQVDESRGFKKEVLNAFLAKIYKRQKGGAEAAAKEAAAKAGGSGGGSGGGGSGGSGGGGSGGGGSMSDNSIATKILNFGHTCWKLQRPYVVKGMISIACGLFGKELLHNTNLISWGLMWKAFFALVPILSFNFFAAIMNQIYDVDIDRINKPDLPLVSGEMSIETAWILSIIVALTGLIVTIKLKSAPLFVFIYIFGIFAGFAYSVPPIRWKQNPSTNFLITISSHVGLAFTSYSATTSALGLPFVWRPAFSFIIAFMTVMGMTIAFAKDISDIEGDAKYGVSTVATKLGARNMTFVVSGVLLLNYVAAILAGIIWPQAFNSNVMLLSHAILAFWLILQTRDFALTNYDPEAGRRFFEFIWLLYYAEYFVYVFI | – | – | – | 98 ± 8 | 21 ± 2 | 4.6
4 | APT73.77-F17-GPS1.1: fusion protein, SEQ ID NO: 64 (protein, APT73.77-F17-GPS1.1, mutant soluble aromatic prenyltransferase, geranyl diphosphate synthase fusion protein) MDEVYAAVEQTSRLLDVPCSPDRFEPVWKAFGDQLPDSHLVFSMAAGEAHRGELDFDFSLRPEGADPYTTALEHGFIEPTDHPVGSVLAEVGKRFAIASYGVEYGVVGGFKKSYAFFPLDDFPPLAQFAEVPSVPPCLAGHVETLTRLGFDDKVSIIGVNYRKNTLNVYLAASAVDTGDKLALLRAFGYPEPDARVRQFIERSFRLYPTFNWDSSAAERICFAVHTQQPGELPAPHDEPTEAFARQVPHVYEGGREFVSGVALAPSGASYYKLAALYQKARRCLDGGGGSMSKAKFESVFPRISEELVQLLRDEGLPQDAVQWFSDSLQYNCVGGKLNRGLSVVDTYQLLTGKKELDDEEYYRLALLGWLIELLQAFWLVSDDIMDESKTRRGQPCWYLKPKVGMIAIWDAFMLESGIYILLKKHFRQEKYYIDLVELFHDISFKTELGQLVDLLTAPEDEVDLNRFSLDKHSFIVRYKTAYYSFYLPVVLAMYVAGITNPKDLQQAMDVLIPLGEYFQVQDDYLDNFGDPEFIGKIGTDIQDNKCSWLVNKALQKATPEQRQILEDNYGVKDKSKELVIKKLYDDMKIEQDYLDYEEEVVGDIKKKIEQVDESRGFKKEVLNAFLAKIYKRQK | 242 ± 36 | 73 ± 9 | 3.3 | – | – | –
5 | GPS1.1-F16-APT73.77: fusion protein, SEQ ID NO: 63 (protein, GPS1.1-F16-APT73.77, geranyl diphosphate synthase, mutant soluble aromatic prenyltransferase fusion protein) MSKAKFESVFPRISEELVQLLRDEGLPQDAVQWFSDSLQYNCVGGKLNRGLSVVDTYQLLTGKKELDDEEYYRLALLGWLIELLQAFWLVSDDIMDESKTRRGQPCWYLKPKVGMIAIWDAFMLESGIYILLKKHFRQEKYYIDLVELFHDISFKTELGQLVDLLTAPEDEVDLNRFSLDKHSFIVRYKTAYYSFYLPVVLAMYVAGITNPKDLQQAMDVLIPLGEYFQVQDDYLDNFGDPEFIGKIGTDIQDNKCSWLVNKALQKATPEQRQILEDNYGVKDKSKELVIKKLYDDMKIEQDYLDYEEEVVGDIKKKIEQVDESRGFKKEVLNAFLAKIYKRQKGGGSGGGSGGGSGGGGSMDEVYAAVEQTSRLLDVPCSPDRFEPVWKAFGDQLPDSHLVFSMAAGEAHRGELDFDFSLRPEGADPYTTALEHGFIEPTDHPVGSVLAEVGKRFAIASYGVEYGVVGGFKKSYAFFPLDDFPPLAQFAEVPSVPPCLAGHVETLTRLGFDDKVSIIGVNYRKNTLNVYLAASAVDTGDKLALLRAFGYPEPDARVRQFIERSFRLYPTFNWDSSAAERICFAVHTQQPGELPAPHDEPTEAFARQVPHVYEGGREFVSGVALAPSGASYYKLAALYQKARRCLD | 421 ± 44 | 113 ± 12 | 3.7 | – | – | –
